The values below come from paper doi:10.1101/2024.05.14.591795.

For this assay, the target named is BCG3185c (Mycobacterium tuberculosis (title); called a Bacillus Calmette-Guérin (BCG) protein). As to the kind of experiment: SEC. In general terms: Size exclusion chromatography separates by hydrodynamic size, large species first.

As to BCG3185c (enzyme), the stoichiometry N (usually the number of molecules, sites or subunits per partner or assembly) worked out at 3.
